Experimental data taken from the supplement of paper PMC9112550, “Optimization of the antimicrobial peptide Bac7 by deep mutational scanning” (BMC Biology, 2022).

Test system: Escherichia coli TOP10
Test: shrunken log2 fold change of peptide-encoding DNA abundance (4.5 h post-induction vs induction); higher = less antimicrobial activity (less host growth inhibition)
Conditions: time post-induction: 4.5 h; library: site-saturation at positions 5, 18, 19, 20
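Note: peptides expressed intracellularly from a pBAD plasmid library in pooled LB shake-flask culture, induced with 0.3% L-arabinose, DNA abundance read by NGS, three biological replicates, DESeq2 with apeglm shrinkage.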

In the case of RRIRRRPPRLPRPRPRPVTVPRP, the “shrunken log2 fold change” value is reported as 0.124.
In the case of RRIRGRPPRLPRPRPRPDENPRP, the “shrunken log2 fold change” value is reported as 0.987.
With RRIRLRPPRLPRPRPRPQNFPRP the “shrunken log2 fold change” value was 0.0254.
With RRIRERPPRLPRPRPRPPVCPRP the “shrunken log2 fold change” value was -0.119.
With RRIRQRPPRLPRPRPRPRSLPRP the “shrunken log2 fold change” value was -0.0177.
RRIRERPPRLPRPRPRPQSYPRP was tested, and the “shrunken log2 fold change” value was -0.0192.
In the case of RRIRFRPPRLPRPRPRPMNCPRP, the “shrunken log2 fold change” value is reported as -0.735.
With RRIRPRPPRLPRPRPRPIIVPRP the “shrunken log2 fold change” value was -0.178.
In the case of RRIRMRPPRLPRPRPRPGCYPRP, the “shrunken log2 fold change” value is reported as 0.135.
RRIRSRPPRLPRPRPRPKFWPRP was tested, and the “shrunken log2 fold change” value was 0.759.
For RRIRGRPPRLPRPRPRPLWVPRP, the “shrunken log2 fold change” value was 0.472.
For RRIRMRPPRLPRPRPRPFWPPRP, the “shrunken log2 fold change” value was 1.3.
In the case of RRIRGRPPRLPRPRPRPPKGPRP, the “shrunken log2 fold change” value is reported as 0.673.
With RRIRARPPRLPRPRPRPGWTPRP the “shrunken log2 fold change” value was 0.525.
In the case of RRIRKRPPRLPRPRPRPCSCPRP, the “shrunken log2 fold change” value is reported as 0.018.
For RRIRYRPPRLPRPRPRPGNFPRP, the “shrunken log2 fold change” value was -0.307.
RRIRRRPPRLPRPRPRPECNPRP was tested, and the “shrunken log2 fold change” value was 0.791.
With RRIRERPPRLPRPRPRPYHFPRP the “shrunken log2 fold change” value was -0.177.
RRIRPRPPRLPRPRPRPGDLPRP was tested, and the “shrunken log2 fold change” value was 0.076.
In the case of RRIRWRPPRLPRPRPRPPKLPRP, the “shrunken log2 fold change” value is reported as 0.152.
RRIRERPPRLPRPRPRPGWAPRP was tested, and the “shrunken log2 fold change” value was 0.487.
RRIRKRPPRLPRPRPRPHTMPRP was tested, and the “shrunken log2 fold change” value was 0.205.
For RRIRCRPPRLPRPRPRPWTAPRP, the “shrunken log2 fold change” value was -0.212.
In the case of RRIRKRPPRLPRPRPRPFTKPRP, the “shrunken log2 fold change” value is reported as -0.0833.
RRIRDRPPRLPRPRPRPVNHPRP was tested, and the “shrunken log2 fold change” value was -0.514.
With RRIRERPPRLPRPRPRPLIRPRP the “shrunken log2 fold change” value was -0.0588.
With RRIRPRPPRLPRPRPRPQGLPRP the “shrunken log2 fold change” value was -0.122.
With RRIRIRPPRLPRPRPRPECYPRP the “shrunken log2 fold change” value was -0.146.
For RRIRSRPPRLPRPRPRPLHGPRP, the “shrunken log2 fold change” value was 0.0705.
With RRIRRRPPRLPRPRPRPEMDPRP the “shrunken log2 fold change” value was 0.186.
For RRIRNRPPRLPRPRPRPLAAPRP, the “shrunken log2 fold change” value was 0.568.
For RRIRFRPPRLPRPRPRPEKFPRP, the “shrunken log2 fold change” value was 0.012.
In the case of RRIRLRPPRLPRPRPRPCKEPRP, the “shrunken log2 fold change” value is reported as -0.0177.
In the case of RRIRPRPPRLPRPRPRPGSPPRP, the “shrunken log2 fold change” value is reported as 0.0761.
RRIRSRPPRLPRPRPRPPLHPRP was tested, and the “shrunken log2 fold change” value was -0.00448.
RRIRPRPPRLPRPRPRPGTRPRP was tested, and the “shrunken log2 fold change” value was 0.134.
In the case of RRIRLRPPRLPRPRPRPPALPRP, the “shrunken log2 fold change” value is reported as 0.696.
RRIRRRPPRLPRPRPRPSSYPRP was tested, and the “shrunken log2 fold change” value was -0.0808.
With RRIRLRPPRLPRPRPRPFPGPRP the “shrunken log2 fold change” value was 0.143.
With RRIRARPPRLPRPRPRPTFAPRP the “shrunken log2 fold change” value was 0.347.
For RRIRSRPPRLPRPRPRPMNTPRP, the “shrunken log2 fold change” value was -0.647.
For RRIRVRPPRLPRPRPRPIMLPRP, the “shrunken log2 fold change” value was -0.122.
RRIRGRPPRLPRPRPRPATSPRP was tested, and the “shrunken log2 fold change” value was 0.914.
With RRIRWRPPRLPRPRPRPGWCPRP the “shrunken log2 fold change” value was 0.362.
For RRIRARPPRLPRPRPRPMSVPRP, the “shrunken log2 fold change” value was 0.121.
RRIRSRPPRLPRPRPRPSKWPRP was tested, and the “shrunken log2 fold change” value was -0.285.
RRIRSRPPRLPRPRPRPMYQPRP was tested, and the “shrunken log2 fold change” value was -0.594.
With RRIRTRPPRLPRPRPRPLYLPRP the “shrunken log2 fold change” value was -0.558.
For RRIRGRPPRLPRPRPRPRHEPRP, the “shrunken log2 fold change” value was 0.604.
RRIRMRPPRLPRPRPRPNYEPRP was tested, and the “shrunken log2 fold change” value was -0.122.
RRIRCRPPRLPRPRPRPFFVPRP was tested, and the “shrunken log2 fold change” value was -0.209.
RRIRDRPPRLPRPRPRPRGCPRP was tested, and the “shrunken log2 fold change” value was 0.786.
With RRIRPRPPRLPRPRPRPMKVPRP the “shrunken log2 fold change” value was -0.0686.
In the case of RRIRYRPPRLPRPRPRPQAMPRP, the “shrunken log2 fold change” value is reported as -0.418.
For RRIRMRPPRLPRPRPRPQHRPRP, the “shrunken log2 fold change” value was 0.0767.
RRIRARPPRLPRPRPRPNTIPRP was tested, and the “shrunken log2 fold change” value was -0.0317.
For RRIRDRPPRLPRPRPRPEHIPRP, the “shrunken log2 fold change” value was -0.193.
In the case of RRIRVRPPRLPRPRPRPEHNPRP, the “shrunken log2 fold change” value is reported as -0.244.
RRIRHRPPRLPRPRPRPWGSPRP was tested, and the “shrunken log2 fold change” value was -0.356.
RRIRQRPPRLPRPRPRPALEPRP was tested, and the “shrunken log2 fold change” value was 0.275.
With RRIRLRPPRLPRPRPRPSQNPRP the “shrunken log2 fold change” value was -0.278.
For RRIRRRPPRLPRPRPRPLPVPRP, the “shrunken log2 fold change” value was 0.373.
For RRIRSRPPRLPRPRPRPIDPPRP, the “shrunken log2 fold change” value was 0.017.
In the case of RRIRMRPPRLPRPRPRPMPLPRP, the “shrunken log2 fold change” value is reported as 0.00106.
RRIRMRPPRLPRPRPRPSIEPRP was tested, and the “shrunken log2 fold change” value was 0.0914.
With RRIRMRPPRLPRPRPRPTRVPRP the “shrunken log2 fold change” value was 0.25.
In the case of RRIRGRPPRLPRPRPRPTDYPRP, the “shrunken log2 fold change” value is reported as -0.00915.
For RRIRSRPPRLPRPRPRPWRGPRP, the “shrunken log2 fold change” value was 0.59.
For RRIRERPPRLPRPRPRPDYMPRP, the “shrunken log2 fold change” value was 0.0229.
For RRIRQRPPRLPRPRPRPQYSPRP, the “shrunken log2 fold change” value was 0.124.
With RRIRKRPPRLPRPRPRPNRMPRP the “shrunken log2 fold change” value was 0.00972.
RRIRYRPPRLPRPRPRPWEAPRP was tested, and the “shrunken log2 fold change” value was -0.271.
RRIRLRPPRLPRPRPRPMFEPRP was tested, and the “shrunken log2 fold change” value was -0.00818.
With RRIRWRPPRLPRPRPRPCITPRP the “shrunken log2 fold change” value was -0.0175.
For RRIRRRPPRLPRPRPRPLNVPRP, the “shrunken log2 fold change” value was -0.0701.
RRIRQRPPRLPRPRPRPQKIPRP was tested, and the “shrunken log2 fold change” value was -0.29.
For RRIRMRPPRLPRPRPRPNQSPRP, the “shrunken log2 fold change” value was 0.176.
With RRIRIRPPRLPRPRPRPHEDPRP the “shrunken log2 fold change” value was -0.182.
For RRIRSRPPRLPRPRPRPNWLPRP, the “shrunken log2 fold change” value was 0.18.
With RRIRYRPPRLPRPRPRPIIHPRP the “shrunken log2 fold change” value was -1.21.
In the case of RRIRNRPPRLPRPRPRPIELPRP, the “shrunken log2 fold change” value is reported as -0.232.
For RRIRCRPPRLPRPRPRPLGQPRP, the “shrunken log2 fold change” value was 0.16.
For RRIRCRPPRLPRPRPRPVNIPRP, the “shrunken log2 fold change” value was -0.971.
In the case of RRIRPRPPRLPRPRPRPNDDPRP, the “shrunken log2 fold change” value is reported as -0.188.
For RRIRQRPPRLPRPRPRPPWPPRP, the “shrunken log2 fold change” value was 0.429.
With RRIRSRPPRLPRPRPRPAARPRP the “shrunken log2 fold change” value was 0.247.
For RRIRTRPPRLPRPRPRPWIYPRP, the “shrunken log2 fold change” value was -0.0134.
In the case of RRIRGRPPRLPRPRPRPQYRPRP, the “shrunken log2 fold change” value is reported as 0.0878.
RRIRGRPPRLPRPRPRPAMRPRP was tested, and the “shrunken log2 fold change” value was 1.17.
RRIRRRPPRLPRPRPRPNTRPRP was tested, and the “shrunken log2 fold change” value was 0.162.
For RRIRHRPPRLPRPRPRPKLGPRP, the “shrunken log2 fold change” value was -0.249.
In the case of RRIRCRPPRLPRPRPRPHWAPRP, the “shrunken log2 fold change” value is reported as 0.244.
RRIRLRPPRLPRPRPRPFHFPRP was tested, and the “shrunken log2 fold change” value was -0.58.
With RRIRPRPPRLPRPRPRPPANPRP the “shrunken log2 fold change” value was 0.418.
With RRIRPRPPRLPRPRPRPGSMPRP the “shrunken log2 fold change” value was -0.149.
In the case of RRIRARPPRLPRPRPRPKAGPRP, the “shrunken log2 fold change” value is reported as 0.213.
In the case of RRIRPRPPRLPRPRPRPFAWPRP, the “shrunken log2 fold change” value is reported as 0.169.
In the case of RRIRFRPPRLPRPRPRPESMPRP, the “shrunken log2 fold change” value is reported as -0.188.
RRIRQRPPRLPRPRPRPFQSPRP was tested, and the “shrunken log2 fold change” value was -0.0102.
With RRIRHRPPRLPRPRPRPLWEPRP the “shrunken log2 fold change” value was 0.0119.
With RRIRMRPPRLPRPRPRPEADPRP the “shrunken log2 fold change” value was 0.136.
With RRIRIRPPRLPRPRPRPEHDPRP the “shrunken log2 fold change” value was -0.523.
RRIRSRPPRLPRPRPRPREEPRP was tested, and the “shrunken log2 fold change” value was 0.369.
RRIRWRPPRLPRPRPRPKKAPRP was tested, and the “shrunken log2 fold change” value was 0.149.
With RRIRHRPPRLPRPRPRPLNPPRP the “shrunken log2 fold change” value was -0.204.
In the case of RRIRMRPPRLPRPRPRPPRVPRP, the “shrunken log2 fold change” value is reported as 1.23.
For RRIRTRPPRLPRPRPRPKCTPRP, the “shrunken log2 fold change” value was -0.0569.
In the case of RRIRPRPPRLPRPRPRPFINPRP, the “shrunken log2 fold change” value is reported as -0.382.
RRIRYRPPRLPRPRPRPPQAPRP was tested, and the “shrunken log2 fold change” value was 0.114.
In the case of RRIRRRPPRLPRPRPRPKMEPRP, the “shrunken log2 fold change” value is reported as 0.282.
With RRIRLRPPRLPRPRPRPPQRPRP the “shrunken log2 fold change” value was 0.26.
In the case of RRIRWRPPRLPRPRPRPFGRPRP, the “shrunken log2 fold change” value is reported as -0.0754.
RRIRVRPPRLPRPRPRPMMDPRP was tested, and the “shrunken log2 fold change” value was -0.154.
With RRIRVRPPRLPRPRPRPHDMPRP the “shrunken log2 fold change” value was -0.0267.
RRIRIRPPRLPRPRPRPNISPRP was tested, and the “shrunken log2 fold change” value was -0.199.
In the case of RRIRQRPPRLPRPRPRPVLYPRP, the “shrunken log2 fold change” value is reported as 0.0138.
With RRIRGRPPRLPRPRPRPRSCPRP the “shrunken log2 fold change” value was 0.759.
In the case of RRIRCRPPRLPRPRPRPHDWPRP, the “shrunken log2 fold change” value is reported as 0.112.
For RRIRNRPPRLPRPRPRPDVQPRP, the “shrunken log2 fold change” value was -0.13.
In the case of RRIRKRPPRLPRPRPRPIKEPRP, the “shrunken log2 fold change” value is reported as -0.0178.
With RRIRWRPPRLPRPRPRPTIAPRP the “shrunken log2 fold change” value was 0.367.
For RRIRMRPPRLPRPRPRPVYHPRP, the “shrunken log2 fold change” value was -0.435.
For RRIRWRPPRLPRPRPRPTGPPRP, the “shrunken log2 fold change” value was 0.217.
RRIRDRPPRLPRPRPRPIVCPRP was tested, and the “shrunken log2 fold change” value was 0.0446.
For RRIRCRPPRLPRPRPRPFTVPRP, the “shrunken log2 fold change” value was -0.456.
